Test results taken from the supplement of paper PMC10065799, “High-throughput profiling of sequence recognition by tyrosine kinases and SH2 domains using bacterial peptide display” (eLife, 2023).

Key:
SHP2-C SH2 = test: SH2 binding enrichment of the phosphorylated peptide, bacterial display (enrichment ratio); higher = better substrate or ligand; peptides without Tyr show the background
Grb2 SH2 = Grb2 SH2 (UniProt P62993); test: as above
c-Src SH2 = test: as above
Fer (mouse) = test: phosphorylation enrichment, bacterial display (enrichment ratio); higher = better substrate or ligand; peptides without Tyr show the background
Hck = Hck (UniProt P08631); test: as above
Chain of Hck (P08631 whole entry, looked up): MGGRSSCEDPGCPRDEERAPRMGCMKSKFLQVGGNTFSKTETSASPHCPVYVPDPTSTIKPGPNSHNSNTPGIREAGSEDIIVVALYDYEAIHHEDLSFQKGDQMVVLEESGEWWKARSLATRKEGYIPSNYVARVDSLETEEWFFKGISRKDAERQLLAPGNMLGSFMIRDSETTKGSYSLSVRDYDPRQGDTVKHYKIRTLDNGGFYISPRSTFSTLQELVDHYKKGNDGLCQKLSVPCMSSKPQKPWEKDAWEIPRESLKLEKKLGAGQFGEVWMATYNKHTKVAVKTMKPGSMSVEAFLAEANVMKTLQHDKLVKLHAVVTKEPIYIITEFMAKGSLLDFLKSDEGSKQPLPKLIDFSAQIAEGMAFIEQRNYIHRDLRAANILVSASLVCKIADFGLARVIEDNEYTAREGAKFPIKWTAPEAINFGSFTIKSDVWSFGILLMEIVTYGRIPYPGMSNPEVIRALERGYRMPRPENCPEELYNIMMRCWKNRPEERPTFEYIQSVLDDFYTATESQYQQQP

AncSZ = test: as above
MERTK = MERTK (UniProt Q12866); test: as above
Chain of MERTK (Q12866 whole entry, looked up): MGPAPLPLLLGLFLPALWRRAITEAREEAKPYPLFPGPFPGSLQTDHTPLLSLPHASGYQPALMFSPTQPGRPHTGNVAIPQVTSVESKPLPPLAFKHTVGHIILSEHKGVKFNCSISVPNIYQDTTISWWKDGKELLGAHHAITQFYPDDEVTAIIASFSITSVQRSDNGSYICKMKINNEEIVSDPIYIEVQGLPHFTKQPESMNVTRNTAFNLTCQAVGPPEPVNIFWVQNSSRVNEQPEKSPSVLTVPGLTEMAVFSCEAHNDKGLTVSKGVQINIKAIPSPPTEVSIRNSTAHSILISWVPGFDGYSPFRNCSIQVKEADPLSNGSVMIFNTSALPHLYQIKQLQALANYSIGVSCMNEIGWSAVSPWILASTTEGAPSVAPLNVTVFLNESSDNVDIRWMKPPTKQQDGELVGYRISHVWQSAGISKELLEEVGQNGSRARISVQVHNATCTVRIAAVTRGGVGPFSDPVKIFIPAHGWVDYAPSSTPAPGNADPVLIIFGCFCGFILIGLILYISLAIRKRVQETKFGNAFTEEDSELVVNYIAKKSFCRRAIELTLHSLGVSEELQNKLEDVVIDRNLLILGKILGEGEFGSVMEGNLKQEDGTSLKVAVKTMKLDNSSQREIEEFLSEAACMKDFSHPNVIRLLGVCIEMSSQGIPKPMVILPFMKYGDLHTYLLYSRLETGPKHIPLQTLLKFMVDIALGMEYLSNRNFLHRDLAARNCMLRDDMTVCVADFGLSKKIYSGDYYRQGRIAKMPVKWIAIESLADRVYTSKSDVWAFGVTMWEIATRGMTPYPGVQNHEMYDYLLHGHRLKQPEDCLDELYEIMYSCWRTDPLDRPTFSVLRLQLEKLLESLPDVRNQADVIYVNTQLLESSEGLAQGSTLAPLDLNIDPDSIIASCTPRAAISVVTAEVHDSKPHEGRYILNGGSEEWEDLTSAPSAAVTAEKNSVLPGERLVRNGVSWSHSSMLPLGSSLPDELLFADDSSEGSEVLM

Fyn = Fyn (UniProt P06241); test: as above
c-Src = test: as above
EPHB2 = EPHB2 (UniProt P29323); test: as above
Chain of EPHB2 (P29323 whole entry, looked up): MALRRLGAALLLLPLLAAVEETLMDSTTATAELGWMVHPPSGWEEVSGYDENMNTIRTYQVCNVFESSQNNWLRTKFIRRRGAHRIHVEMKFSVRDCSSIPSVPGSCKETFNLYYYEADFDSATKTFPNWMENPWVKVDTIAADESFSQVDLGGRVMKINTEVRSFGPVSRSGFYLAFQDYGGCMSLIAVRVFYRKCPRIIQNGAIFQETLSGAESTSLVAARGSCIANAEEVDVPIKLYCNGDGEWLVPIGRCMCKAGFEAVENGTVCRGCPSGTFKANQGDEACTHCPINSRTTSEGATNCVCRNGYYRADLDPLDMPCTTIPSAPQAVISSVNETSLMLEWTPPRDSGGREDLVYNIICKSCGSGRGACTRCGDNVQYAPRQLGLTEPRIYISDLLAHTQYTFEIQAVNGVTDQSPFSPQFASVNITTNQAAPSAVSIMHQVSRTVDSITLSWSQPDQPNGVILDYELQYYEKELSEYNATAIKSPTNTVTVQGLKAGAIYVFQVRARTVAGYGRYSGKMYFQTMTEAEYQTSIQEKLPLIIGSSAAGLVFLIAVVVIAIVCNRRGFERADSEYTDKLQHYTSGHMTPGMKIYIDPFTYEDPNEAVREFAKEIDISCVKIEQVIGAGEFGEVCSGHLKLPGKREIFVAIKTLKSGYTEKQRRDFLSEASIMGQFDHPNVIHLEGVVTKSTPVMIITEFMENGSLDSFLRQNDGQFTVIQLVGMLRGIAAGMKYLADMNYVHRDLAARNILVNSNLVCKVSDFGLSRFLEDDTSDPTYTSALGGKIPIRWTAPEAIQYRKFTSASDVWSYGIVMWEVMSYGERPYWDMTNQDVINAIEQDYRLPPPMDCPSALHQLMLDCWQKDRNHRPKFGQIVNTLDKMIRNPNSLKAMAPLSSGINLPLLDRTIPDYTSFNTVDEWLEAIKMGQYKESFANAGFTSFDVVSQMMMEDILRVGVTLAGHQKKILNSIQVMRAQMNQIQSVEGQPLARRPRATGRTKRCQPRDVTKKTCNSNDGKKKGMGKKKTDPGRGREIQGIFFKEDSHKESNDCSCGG

c-Abl (mouse) = test: as above
EPHB1 = EPHB1 (UniProt P54762); test: as above
Chain of EPHB1 (P54762 whole entry, looked up): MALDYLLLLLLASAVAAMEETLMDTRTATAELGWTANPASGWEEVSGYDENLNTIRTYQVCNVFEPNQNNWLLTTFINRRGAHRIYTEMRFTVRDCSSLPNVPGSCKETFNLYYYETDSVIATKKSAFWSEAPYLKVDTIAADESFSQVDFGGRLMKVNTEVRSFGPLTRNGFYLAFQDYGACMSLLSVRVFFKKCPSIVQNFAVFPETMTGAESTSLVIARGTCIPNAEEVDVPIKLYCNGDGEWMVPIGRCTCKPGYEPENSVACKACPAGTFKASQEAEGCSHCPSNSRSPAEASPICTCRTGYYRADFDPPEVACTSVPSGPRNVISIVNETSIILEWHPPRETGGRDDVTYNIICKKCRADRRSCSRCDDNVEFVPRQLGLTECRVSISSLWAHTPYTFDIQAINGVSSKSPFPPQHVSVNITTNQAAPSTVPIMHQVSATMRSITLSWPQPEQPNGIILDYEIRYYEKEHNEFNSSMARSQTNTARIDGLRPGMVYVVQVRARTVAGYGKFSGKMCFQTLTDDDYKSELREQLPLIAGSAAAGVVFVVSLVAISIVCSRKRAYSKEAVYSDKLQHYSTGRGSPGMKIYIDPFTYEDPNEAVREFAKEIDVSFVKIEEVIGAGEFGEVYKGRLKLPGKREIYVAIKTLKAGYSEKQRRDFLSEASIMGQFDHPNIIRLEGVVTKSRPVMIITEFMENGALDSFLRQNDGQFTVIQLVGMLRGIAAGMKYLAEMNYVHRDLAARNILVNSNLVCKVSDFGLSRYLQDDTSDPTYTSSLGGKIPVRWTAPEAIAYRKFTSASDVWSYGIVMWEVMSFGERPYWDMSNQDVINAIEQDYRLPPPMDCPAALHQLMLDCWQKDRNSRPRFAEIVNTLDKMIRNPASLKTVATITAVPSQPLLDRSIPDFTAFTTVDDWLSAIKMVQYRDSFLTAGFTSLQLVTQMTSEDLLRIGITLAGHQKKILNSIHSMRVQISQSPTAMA

Fes = Fes (UniProt P07332); test: as above
FGFR1 = FGFR1 (UniProt P11362); test: as above
FGFR3 = FGFR3 (UniProt P22607); test: as above
Jak2 = Jak2 (UniProt O60674); test: as above
Chain of Jak2 (O60674 whole entry, looked up, the tested form may be a part): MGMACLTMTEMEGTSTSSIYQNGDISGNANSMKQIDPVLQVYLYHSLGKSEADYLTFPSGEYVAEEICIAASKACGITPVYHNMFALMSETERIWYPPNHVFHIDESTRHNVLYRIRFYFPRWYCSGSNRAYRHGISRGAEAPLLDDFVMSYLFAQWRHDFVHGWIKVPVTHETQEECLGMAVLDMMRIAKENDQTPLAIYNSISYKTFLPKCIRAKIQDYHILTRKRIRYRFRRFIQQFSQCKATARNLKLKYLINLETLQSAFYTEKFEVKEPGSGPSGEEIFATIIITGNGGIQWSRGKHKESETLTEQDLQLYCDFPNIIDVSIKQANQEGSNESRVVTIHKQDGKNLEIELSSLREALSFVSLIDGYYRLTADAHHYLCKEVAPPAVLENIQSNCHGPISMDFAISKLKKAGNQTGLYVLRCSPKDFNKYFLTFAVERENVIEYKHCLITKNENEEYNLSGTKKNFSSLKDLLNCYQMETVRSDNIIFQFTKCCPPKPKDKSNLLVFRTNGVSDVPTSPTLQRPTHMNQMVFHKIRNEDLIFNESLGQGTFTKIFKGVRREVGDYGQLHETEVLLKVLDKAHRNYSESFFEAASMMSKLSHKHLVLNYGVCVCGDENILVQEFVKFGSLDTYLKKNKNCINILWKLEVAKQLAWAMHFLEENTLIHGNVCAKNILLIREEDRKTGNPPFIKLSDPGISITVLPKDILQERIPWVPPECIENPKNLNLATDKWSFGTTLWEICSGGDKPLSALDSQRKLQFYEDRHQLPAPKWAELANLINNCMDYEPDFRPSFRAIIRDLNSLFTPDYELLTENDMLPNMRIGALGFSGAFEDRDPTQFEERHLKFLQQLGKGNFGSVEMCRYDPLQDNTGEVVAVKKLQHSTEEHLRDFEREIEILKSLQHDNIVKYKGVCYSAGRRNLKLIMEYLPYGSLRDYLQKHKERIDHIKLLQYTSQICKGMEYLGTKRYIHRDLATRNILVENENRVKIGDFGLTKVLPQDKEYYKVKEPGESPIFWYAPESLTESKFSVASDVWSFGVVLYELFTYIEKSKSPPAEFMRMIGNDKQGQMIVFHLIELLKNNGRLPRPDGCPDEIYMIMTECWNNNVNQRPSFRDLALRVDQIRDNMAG
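Throughout, for SH2 binding enrichment of the phosphorylated peptide, bacterial display: peptide library displayed on the E. coli surface as eCPX fusions, selected cells deep-sequenced, score is each peptide's frequency after selection divided by its frequency in the input.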
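Throughout, for phosphorylation enrichment, bacterial display: 11-residue human phosphosite peptides and single-mutation variants displayed on the E. coli surface, counted by deep sequencing, each peptide's frequency after selection divided by its frequency in the unselected input library; frequency after pTyr selection over input frequency; kinase dosed for 20-30% of maximal phosphorylation in three min.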

Chain of Grb2 SH2 (P62993 whole entry, looked up): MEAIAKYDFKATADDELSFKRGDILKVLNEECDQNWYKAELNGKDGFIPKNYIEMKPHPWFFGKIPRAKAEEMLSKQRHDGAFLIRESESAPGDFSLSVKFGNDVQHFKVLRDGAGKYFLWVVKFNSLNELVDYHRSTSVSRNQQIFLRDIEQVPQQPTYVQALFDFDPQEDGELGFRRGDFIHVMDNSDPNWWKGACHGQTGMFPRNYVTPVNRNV

Sequence | SH2 binding enrichment (SHP2-C SH2) | SH2 binding enrichment (Grb2 SH2) | SH2 binding enrichment (c-Src SH2) | phosphorylation enrichment (Fer (mouse)) | phosphorylation enrichment (Hck) | phosphorylation enrichment (AncSZ) | phosphorylation enrichment (MERTK) | phosphorylation enrichment (Fyn) | phosphorylation enrichment (c-Src) | phosphorylation enrichment (EPHB2) | phosphorylation enrichment (c-Abl (mouse)) | phosphorylation enrichment (EPHB1) | phosphorylation enrichment (Fes) | phosphorylation enrichment (FGFR1) | phosphorylation enrichment (FGFR3) | phosphorylation enrichment (Jak2)
HLATEYVFSDF [PANX1_Y10_Q5H] | 0.884 | 0.755 | 0.576 | 0.788 | 0.661 | 2.12 | 0.639 | 0.935 | 1.28 | 1.04 | 0.863 | 0.808 | 1.39 | 1.67 | 1.23 | 1.17
HLITAYRAHGF [PDHA1_Y118] | 0.642 | 0.981 | 0.422 | 0.489 | 0.536 | 0.648 | 0.369 | 0.551 | 0.344 | 0.389 | 0.309 | 0.572 | 0.74 | 0.701 | 0.609 | 0.408
HLSPEYKQNEI [GJB1_Y243_R238H] | 0.683 | 0.905 | 0.611 | 0.418 | 0.614 | 0.966 | 0.676 | 0.594 | 0.532 | 1.33 | 0.716 | 0.68 | 1.07 | 0.857 | 0.728 | 0.874
HNELYYEAAEH [VANGL1_Y345_E347A] | 0.606 | 0.954 | 0.777 | 7.27 | 2.1 | 1.56 | 5.06 | 1.52 | 1.79 | 1.06 | 0.854 | 1.12 | 1.44 | 5.49 | 4.38 | 1.16
HNGVSYFINLC [IGF2R_Y2024_YF] | 0.573 | 0.755 | 0.439 | 0.587 | 0.618 | 1.57 | 0.613 | 0.659 | 0.668 | 0.822 | 1.24 | 1.17 | 2.08 | 0.783 | 0.997 | 2.2
HNLDFYKQTTN [FGFR3_Y648_K650Q_YF] | 0.488 | 0.874 | 0.395 | 0.409 | 0.455 | 0.948 | 0.581 | 0.368 | 0.409 | 0.494 | 0.683 | 0.623 | 1.35 | 0.581 | 0.631 | 0.793
HNLPIYEGFAL [ACTA1_Y168_V165L_YF] | 0.721 | 0.837 | 0.579 | 21.9 | 12.8 | 1.86 | 12.6 | 14.1 | 9.44 | 24.3 | 14 | 17.5 | 2.8 | 0.677 | 1.13 | 0.996
HQNGTYGLHQD [SGSH_Y89_M88T] | 0.666 | 1.04 | 0.401 | 0.431 | 0.753 | 0.615 | 0.414 | 0.61 | 0.599 | 0.541 | 0.555 | 0.418 | 0.764 | 0.71 | 0.727 | 0.459
HRTLVYGGIFL [FBP1_Y259] | 0.493 | 0.747 | 0.358 | 1.01 | 3.69 | 1.19 | 0.532 | 5.36 | 3.83 | 0.84 | 1.06 | 0.677 | 1.38 | 0.704 | 1.01 | 1.07
HSFQCYGQNEA [ENTPD3_Y262_R264Q] | 0.62 | 0.968 | 0.596 | 0.382 | 0.701 | 0.996 | 0.422 | 0.535 | 0.441 | 0.452 | 0.793 | 0.551 | 1 | 0.604 | 0.71 | 1.21
HSLHDYKEALM [ADA2_Y337] | 0.426 | 0.702 | 0.418 | 0.44 | 0.342 | 0.663 | 0.431 | 0.444 | 0.522 | 0.448 | 0.664 | 0.546 | 0.844 | 0.371 | 0.567 | 0.696
HSVVQYVGGVM [FGGY_Y136_L134V] | 2.89 | 0.885 | 0.465 | 0.643 | 0.609 | 0.989 | 0.603 | 0.465 | 0.491 | 0.572 | 0.61 | 0.517 | 0.911 | 0.447 | 0.629 | 0.726
HVIKLFGACSQ [RET_Y791_Y791F] | 0.979 | 0.938 | 0.667 | 0.763 | 0.855 | 1.52 | 0.719 | 0.816 | 0.519 | 0.995 | 1.1 | 1.01 | 1.75 | 0.709 | 1.26 | 0.994
HYECKYVINAI [MAOA_Y268] | 0.634 | 0.735 | 0.59 | 0.506 | 0.657 | 1.38 | 0.66 | 0.507 | 0.859 | 0.788 | 0.86 | 0.841 | 1.61 | 0.557 | 0.957 | 0.95
ICANKYMVKSC [RPL10_Y75] | 1.12 | 1.09 | 1.13 | 0.464 | 0.424 | 0.719 | 0.409 | 0.406 | 0.44 | 0.445 | 0.524 | 0.476 | 0.815 | 0.385 | 0.514 | 0.735
IDNKMYDPKMN [ENPP1_Y280] | 0.623 | 1.17 | 0.578 | 0.355 | 0.478 | 0.699 | 0.304 | 0.404 | 0.344 | 0.362 | 0.41 | 0.369 | 0.729 | 0.553 | 0.471 | 0.385
IDSTPYRQWFE [RPS8_Y109_YF] | 0.744 | 0.758 | 0.417 | 0.406 | 0.442 | 0.739 | 0.357 | 0.302 | 0.368 | 0.464 | 0.665 | 0.487 | 0.856 | 0.494 | 0.551 | 0.855

Sequence | SH2 binding enrichment (SHP2-C SH2) | SH2 binding enrichment (Grb2 SH2) | SH2 binding enrichment (c-Src SH2) | phosphorylation enrichment (Fer (mouse)) | phosphorylation enrichment (Hck) | phosphorylation enrichment (AncSZ) | phosphorylation enrichment (MERTK) | phosphorylation enrichment (Fyn) | phosphorylation enrichment (c-Src) | phosphorylation enrichment (EPHB2) | phosphorylation enrichment (c-Abl (mouse)) | phosphorylation enrichment (EPHB1) | phosphorylation enrichment (Fes) | phosphorylation enrichment (FGFR1) | phosphorylation enrichment (FGFR3) | phosphorylation enrichment (Jak2)
IENKLYGTSDP [RET_Y1062_M1064T] | 0.604 | 1.02 | 0.465 | 0.549 | 0.553 | 0.858 | 0.526 | 0.59 | 0.509 | 0.544 | 0.818 | 0.563 | 0.869 | 0.527 | 0.559 | 0.817
IENPQYFSDAC [NTRK1_Y496] | 1.02 | 0.789 | 0.524 | 0.524 | 0.626 | 1.13 | 0.546 | 0.516 | 0.542 | 0.616 | 1.01 | 0.648 | 1.24 | 0.673 | 0.962 | 1.14
IFGVSYGEYRY [CFTR_Y512_D513G] | 1.1 | 1.05 | 0.933 | 0.736 | 4.11 | 0.9 | 0.537 | 7.22 | 5.62 | 0.691 | 0.632 | 0.852 | 1.33 | 0.603 | 0.819 | 0.858
IFKAAYFGVFD [SLC25A4_Y191_R188K_YF] | 0.766 | 1.03 | 1.01 | 0.534 | 0.504 | 1.1 | 0.531 | 0.544 | 0.625 | 0.524 | 0.773 | 0.587 | 1.21 | 0.529 | 0.65 | 1.08
IGEVVYQWAVM [GRIN2A_Y502_R504W] | 0.61 | 0.845 | 0.532 | 7.77 | 1.1 | 2.06 | 0.904 | 1.16 | 1.47 | 0.598 | 1.57 | 0.89 | 1.48 | 1.03 | 1.15 | 1.17
IGMSSYVMLAS [GGCX_Y301_F299S] | 1.79 | 0.771 | 1.43 | 0.522 | 0.452 | 1.34 | 0.878 | 0.496 | 0.546 | 0.655 | 0.875 | 0.853 | 1.2 | 1.88 | 1.36 | 1.66
IHETTYNSIMK [ACTA1_Y281] | 1.68 | 0.862 | 1.93 | 0.414 | 1.38 | 0.475 | 0.3 | 0.746 | 1.04 | 0.338 | 0.572 | 0.332 | 0.711 | 0.384 | 0.436 | 0.477
IIWDSYTTNKM [GNB4_Y85] | 0.886 | 0.941 | 0.438 | 0.527 | 0.506 | 1.3 | 0.401 | 0.682 | 0.321 | 0.656 | 0.596 | 0.68 | 1.21 | 0.575 | 0.671 | 0.873
IKEFKYGIEEH [GJA1_Y137_K134E] | 0.489 | 0.856 | 0.457 | 0.402 | 0.42 | 0.836 | 0.342 | 0.349 | 0.365 | 0.464 | 0.612 | 0.39 | 0.918 | 0.508 | 0.684 | 0.581
ILGRYYETGSI [PAX2_Y73] | 0.649 | 0.817 | 1.8 | 0.459 | 0.49 | 0.685 | 0.707 | 0.562 | 0.455 | 0.594 | 0.535 | 0.546 | 0.68 | 0.848 | 0.834 | 0.643
ILTLKYLIEHG [ACTG1_Y69_P70L] | 1.03 | 1.25 | 0.88 | 0.562 | 0.557 | 1.05 | 0.463 | 0.526 | 0.483 | 0.618 | 0.84 | 0.689 | 1.32 | 0.466 | 0.839 | 1.08
IQTDGDRAPEA [UHMK1_Y197_Y197D] | 1.03 | 0.762 | 0.427 | 0.595 | 0.655 | 1.08 | 0.487 | 0.466 | 0.536 | 0.702 | 0.79 | 0.636 | 1.35 | 0.602 | 0.88 | 0.96
IRSGIYYKPES [L2HGDH_Y102_H98R] | 0.419 | 0.712 | 0.697 | 0.465 | 2.6 | 0.899 | 9.7 | 1.97 | 1.51 | 0.753 | 8.79 | 0.982 | 0.687 | 0.745 | 0.735 | 1.26
IRTDAYVQAMT [RPE65_Y89_R91Q] | 0.662 | 0.89 | 0.617 | 0.41 | 0.608 | 0.543 | 0.374 | 0.49 | 0.446 | 0.471 | 0.572 | 0.378 | 0.644 | 0.458 | 0.503 | 0.529
IRYPPYTDWNQ [ALDH3B2_Y365_H361R] | 0.76 | 0.76 | 0.767 | 0.567 | 0.464 | 0.781 | 0.429 | 0.468 | 0.418 | 0.494 | 0.487 | 0.428 | 0.826 | 0.628 | 0.612 | 0.675
ISDNAYQYMLT [MYH7_Y162] | 0.873 | 0.812 | 1.13 | 9.28 | 0.577 | 1.51 | 2.15 | 0.553 | 0.975 | 0.496 | 0.704 | 0.659 | 1.23 | 3.44 | 2.15 | 1.17
